Experiment [1] has as its target T1, human mutCALR on BaF3 cells stably expressing human MPL and human mutCALR (MPL-mutCALR cells) (human).
T1 construct: also called mutant calreticulin
T1 chain: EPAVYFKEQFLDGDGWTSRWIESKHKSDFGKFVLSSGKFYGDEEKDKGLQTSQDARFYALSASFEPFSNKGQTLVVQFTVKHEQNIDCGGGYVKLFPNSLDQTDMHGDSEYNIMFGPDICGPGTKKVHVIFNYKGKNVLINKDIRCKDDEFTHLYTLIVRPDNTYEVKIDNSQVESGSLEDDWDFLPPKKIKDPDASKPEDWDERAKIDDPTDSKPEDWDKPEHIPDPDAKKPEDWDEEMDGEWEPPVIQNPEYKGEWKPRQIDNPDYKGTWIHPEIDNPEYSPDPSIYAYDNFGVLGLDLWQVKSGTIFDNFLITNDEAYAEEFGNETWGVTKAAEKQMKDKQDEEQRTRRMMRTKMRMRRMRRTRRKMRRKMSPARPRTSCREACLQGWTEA
Nature of the experiment: flow cytometry, BaF3 MPL-mutCALR cells. On the procedure: On the day of the assay, cells were washed and resuspended in assay buffer. Approximately 200,000 cells/well were added to 96-well plates and stained with the indicated concentration of antibodies for 30 minutes on ice. Cells were then washed and stained with goat anti-human secondary conjugated to R-phycoerythrin (R-PE) (Jackson Immuno Research Laboratories) for 30 minutes on ice. The cells were then washed and analyzed by flow cytometry.

In experiment [2] the target is T2, human Type 1 mutCALR on Ba/F3 cells expressing MPL and Type 1 mutCALR (human).
T2 chain: T1 chain
Nature of the experiment: cell-based or functional assay.

Residue numbers refer to the chain shown, from its start.

B1: anti-mutCALR antibody clone 52 (antibody, human IgG1, kappa, V domains shown)
VH: EVQLVQSGAEVKKPGASVKVSCKVSGYTLTELSMHWVRQAPGKGLEWMGLVDPEDGETIYAEKFQGRVTITADTSTDTAYMELSSPRSEDTAVYYCATTIGDDYFDYWGQGTLVTVSS
VL: not shown
notes: human IgG1
For B1, in experiment [1], the “MPL-mutCALR AUC” value is 65800. In experiment [2], the “IC50, inhibition of pSTAT5” value worked out at 0.346 µg/mL.

B2: anti-mutCALR antibody clone 41 (antibody, human IgG1, lambda, V domains shown)
VH: EVQLVQSGAEVKKPGASVKVSCKVSGYTLTELSMHWVRQAPGKGLEWMGLVDPEDGETIYAQKFQGRVTMTEDTSTDTAYMELSSLRSEDTAVYYCAREEWSGDGDDAFDIWGQGTMVTVSS
VL: QSVLTQPPSVSAAPGQKVTISCSGSSSNIGSYSVSWYQQLPGTAPKLLIYDNNKRPSGIPDRFSGSNSGTSATLGITGLQTGDEADYYCGTWDSSLSAWVFGGGTKLTVLG
notes: human IgG1
B2: in experiment [1], the “MPL-mutCALR AUC” value turned out to be 60600. The “IC50, inhibition of pSTAT5” value in experiment [2] turned out to be 0.364 µg/mL.

B3: anti-mutCALR antibody clone 40 (antibody, human IgG1, lambda, V domains shown)
VH: B2 VH with L32S
VL: B2 VL
notes: human IgG1
Regarding B3, in experiment [1], a half-maximal response (EC50) required 0.07 µg/mL and the “MPL-mutCALR AUC” value worked out at 52900. For the same molecule, in experiment [2], the “IC50, inhibition of pSTAT5” value came to 0.742 µg/mL.

B4: anti-mutCALR antibody clone 42 (antibody, human IgG1, lambda, V domains shown)
VH: B2 VH
VL: B2 VL with N52D, G75S
notes: human IgG1
For B4, the “MPL-mutCALR AUC” value in experiment [1] came to 61300. Further, the “IC50, inhibition of pSTAT5” value in experiment [2] is 0.196 µg/mL.

B5: anti-mutCALR antibody clone 38 (antibody, human IgG1, kappa, V domains shown)
VH: EVQPVQSGAEVKKPGSSVKVSCKASGGTFSSYAISWVRQAPGQGLEWMGLVDPEDGETIYAEKFRGRVTITADTSTDTAYMELSSLRSEDTAVYYCATEESYGPWGQGTLVTVSS
VL: DIQLTQSPSSLSASVGDRVTITCQASQDISNYLNWYQQKPGKAPKLLIYDASNLETGVPSRFSGSGSGTEFTLTISSLQPEDFATYYCQQLNSYPLTFGGGTKLEIKR
notes: human IgG1
With B5, in experiment [1], the concentration giving a half-maximal response (EC50) is 1.44 µg/mL and the “MPL-mutCALR AUC” value is 37000. For the same molecule, the “IC50, inhibition of pSTAT5” value in experiment [2] is 3.55 µg/mL.

B6: anti-mutCALR antibody clone 39 (antibody, human IgG1, kappa, V domains shown)
VH: B5 VH with P4L, R65Q
VL: B5 VL with N34D
notes: human IgG1
As for B6, the “MPL-mutCALR AUC” value in experiment [1] was 51500. Further, in experiment [2], the “IC50, inhibition of pSTAT5” value came out at 3.97 µg/mL.

B7: anti-mutCALR antibody clone 53 (antibody, human IgG1, lambda, V domains shown)
VH: QVQLVQSGAEVKKPGASVKVSCKVSGYTLTELSMHWVRQAPGKGLEWMGGFDPEDGETIYAQKFQGRVTMTEDTSTDTAYMELSSLRSEDTAVYYCATDIQGLAEFDYWGQGTLVTVSS
VL: QSALTQPRSVSGSPGQSVTISCTGTNTDVGAYIDVSWYQQHPGKAPKLIIYDVSKWPSGVPDRFSGSKSGNTASLTISGLQAEDEADYYCCSYAGNHSFSFGGGTKVTVLG
notes: human IgG1
Regarding B7, in experiment [1], it took 0.02 µg/mL to reach a half-maximal effect (EC50) and the “MPL-mutCALR AUC” value turned out to be 64600. Further, the “IC50, inhibition of pSTAT5” value in experiment [2] amounted to 0.402 µg/mL.

B8: anti-mutCALR antibody clone 6 (antibody, human IgG1, lambda)
heavy: not shown
light: QSALTQPASVSGSPGQSITISCTGTSSDVGGYNYVSWYQQHPGKAPKLMIYEVSNRPSGVSNRFSGSNSGNTATLTINRVEAGDEADYYCQVWDSSNDLLIFGGGTKLTVLGQPKAAPSVTLFPPSSEELQANKATLVCLISDFYPGAVTVAWKADSSPVKAGVETTTPSKQSNNKYAASSYLSLTPEQWKSHRSYSCQVTHEGSTVEKTVAPTECS
notes: human IgG1
Consider B8, for which, in experiment [1], the concentration giving a half-maximal response (EC50) was determined as 0.3 µg/mL and the “MPL-mutCALR AUC” value was found to be 58200. Moreover, in experiment [2], the “IC50, inhibition of pSTAT5” value was 0.03 µg/mL.

B9: anti-mutCALR antibody clone 11 (antibody, human IgG1, lambda, V domains shown)
VH: EVRLVQSGAEVKKPGASVKVSCKVSGYTLTELSMQWVRQAPGKGLEWMGGFDPDDGETMYAEKFQGRLTVTEDTSTDTVYMELRSLTSEDTALYFCATSPGYDFFDYWGQGTLVTVSS
VL: QSALTQPRSVSGSPGQSVTISCTGTSSDVGGYNYVSWYQQHPGKAPKLMIYDVSKRPSGVPDRFSGSNSGNTATLTINRVEAGDEADYYCQVWDSSNDLLIFGGGTKLTVLG
notes: human IgG1
For the molecule B9, in experiment [1], a half-maximal response (EC50) required 0.05 µg/mL and the “MPL-mutCALR AUC” value was 69700. For the same molecule, the “IC50, inhibition of pSTAT5” value in experiment [2] was found to be 0.052 µg/mL.

B10: anti-mutCALR antibody clone 37 (antibody, human IgG1, lambda, V domains shown)
VH: QVQLVQSGAEVKKPGATVKISCKVSGYSFTDYFIHWVQQAPGKGLAWVGLVDPEDGETIYAEKFQGRVTITADTSTDTAYMELSSLRSEDTAVYYCATPGGILTDPDAFDIWGQGTMVTVSS
VL: QSALTQPASVSGSPGQSITISCTGTSSDVGGYNYVSWYQQHPGKAPKLMIYDVSNRPSGVSNRFSGSKSGNTASLTISGLQAEDEADYYCSSYTSSSTFYVFGTGTKVTVLG
notes: human IgG1
In the case of B10, in experiment [1], the midpoint of the response, the EC50, lay at 9.64 µg/mL and the “MPL-mutCALR AUC” value was 80900. Also, in experiment [2], the “IC50, inhibition of pSTAT5” value came out at 0.039 µg/mL.

B11: anti-mutCALR antibody clone 33 (antibody, human IgG1, lambda, V domains shown)
VH: B10 VH
VL: QSALTQPRSVSGSPGQSVTISCAGTGSDVGGYNHVSWYQHHPGKAPKLMIYDVNKRPSGVPDRFSGSKSGNTASLTISGLQAEDEADYYCSSYIPSSTRWVFGGGTKLTVLG
notes: human IgG1
As to B11, in experiment [1], the 50% effective concentration (EC50) is 0.15 µg/mL and the “MPL-mutCALR AUC” value stood at 38700. Also, the “IC50, inhibition of pSTAT5” value in experiment [2] was 80.4 µg/mL.

B12: anti-mutCALR antibody clone 32 (antibody, human IgG1, lambda, V domains shown)
VH: B10 VH
VL: B10 VL with D52E, F99P
notes: human IgG1
In the case of B12, in experiment [1], the response was half-maximal at 0.01 µg/mL (EC50) and the “MPL-mutCALR AUC” value amounted to 52500. The “IC50, inhibition of pSTAT5” value in experiment [2] turned out to be 0.47 µg/mL.

B13: anti-mutCALR antibody clone 36 (antibody, human IgG1, lambda, V domains shown)
VH: B10 VH
VL: B11 VL with H34Y, I94T, P95S, R99F, W100Y, G104T, L108V
notes: human IgG1
Take B13: in experiment [1], the midpoint of the response, the EC50, lay at 0.01 µg/mL and the “MPL-mutCALR AUC” value came to 73800. For the same molecule, the “IC50, inhibition of pSTAT5” value in experiment [2] was 0.092 µg/mL.

B14: anti-mutCALR antibody clone 31 (antibody, human IgG1, lambda, V domains shown)
VH: B10 VH
VL: B11 VL with R8A, A23T, G26S, H34Y
notes: human IgG1
As to B14, in experiment [1], the EC50 turned out to be 0.01 µg/mL and the “MPL-mutCALR AUC” value amounted to 45700. In addition, in experiment [2], the “IC50, inhibition of pSTAT5” value was 26.8 µg/mL.

B15: anti-mutCALR antibody clone 35 (antibody, human IgG1, lambda, V domains shown)
VH: B10 VH with K63R
VL: B10 VL with D52E, F99P
notes: human IgG1
Regarding B15, in experiment [1], the response was half-maximal at 0.02 µg/mL (EC50) and the “MPL-mutCALR AUC” value worked out at 62100. Further, the “IC50, inhibition of pSTAT5” value in experiment [2] is 0.444 µg/mL.

B16: anti-mutCALR antibody clone 23 (antibody, human IgG1, lambda, V domains shown)
VH: B9 VH with R3Q
VL: SYVLTQPPSVSVAPGQTARITCGGNNIGIKSVHWYQQKPGQAPVLVVYDDSDRPSGIPERFSGSNSGNTATLTINRVEAGDEADYYCQVWDSSNDLLIFGGGTKLTVLG
notes: human IgG1
Take B16: the “MPL-mutCALR AUC” value in experiment [1] was found to be 65900. The “IC50, inhibition of pSTAT5” value in experiment [2] came out at 0.03 µg/mL.

B17: anti-mutCALR antibody clone 25 (antibody, human IgG1, lambda, V domains shown)
VH: B9 VH with R3Q
VL: B16 VL with V3E, S11A, I29R, S31A
notes: human IgG1
Regarding B17, in experiment [1], the concentration for a half-maximal effect (EC50) came to 77.3 µg/mL and the “MPL-mutCALR AUC” value came out at 65200. Also, the “IC50, inhibition of pSTAT5” value in experiment [2] stood at 0.024 µg/mL.

B18: anti-mutCALR antibody clone 26 (antibody, human IgG1, lambda, V domains shown)
VH: B9 VH with R3Q
VL: B16 VL with I29S, N75S, N94I, L96H, L105V
notes: human IgG1
As for B18, in experiment [1], the 50% effective concentration (EC50) worked out at 0.42 µg/mL and the “MPL-mutCALR AUC” value turned out to be 41500. In addition, the “IC50, inhibition of pSTAT5” value in experiment [2] came out at 0.125 µg/mL.

B19: anti-mutCALR antibody clone 30 (antibody, human IgG1, lambda, V domains shown)
VH: B9 VH with R3Q
VL: B16 VL with Q16K, R19T, I29T
notes: human IgG1
In the case of B19, the “MPL-mutCALR AUC” value in experiment [1] came out at 63800. In addition, the “IC50, inhibition of pSTAT5” value in experiment [2] came to 0.054 µg/mL.

B20: anti-mutCALR antibody clone 28 (antibody, human IgG1, lambda, V domains shown)
VH: B9 VH with R3Q
VL: B16 VL with V3E, I29S, N75S, S92A, S93D, N94S, L96Q
notes: human IgG1
For B20, in experiment [1], a half-maximal response (EC50) required 4.15 µg/mL and the “MPL-mutCALR AUC” value turned out to be 60400. Further, the “IC50, inhibition of pSTAT5” value in experiment [2] is 0.193 µg/mL.

B21: anti-mutCALR antibody clone 29 (antibody, human IgG1, lambda, V domains shown)
VH: B9 VH with R3Q
VL: B16 VL with Q16K, I29S, N75S, N94S, T103A
notes: human IgG1
For the molecule B21, in experiment [1], it took 3.19 µg/mL to reach a half-maximal effect (EC50) and the “MPL-mutCALR AUC” value amounted to 77900. Also, the “IC50, inhibition of pSTAT5” value in experiment [2] is 0.037 µg/mL.

B22: anti-mutCALR antibody clone 24 (antibody, human IgG1, lambda, V domains shown)
VH: B9 VH with R3Q, F64L
VL: B16 VL with Q16K, I29S
notes: human IgG1
As to B22, in experiment [1], the concentration giving a half-maximal response (EC50) came out at 29.3 µg/mL and the “MPL-mutCALR AUC” value is 67800. For the same molecule, in experiment [2], the “IC50, inhibition of pSTAT5” value was determined as 0.031 µg/mL.

B23: anti-mutCALR antibody clone 27 (antibody, human IgG1, lambda, V domains shown)
VH: B9 VH with R3Q
VL: B16 VL with S51R
notes: human IgG1
As to B23, the “MPL-mutCALR AUC” value in experiment [1] was 55200. Moreover, the “IC50, inhibition of pSTAT5” value in experiment [2] turned out to be 0.037 µg/mL.

The values above are taken from US20230272055A1 (Incyte, published 2023).
